Laboratory results as given in PMC7406587, “Improving the production of AHL lactonase AiiO-AIO6 from Ochrobactrum sp. M231 in intracellular protease-deficient Bacillus subtilis” (AMB Express, 2020).

Substrate: CCCCCC(=O)CC(=O)N[C@H]1CCOC1=O
Assay: purified protein
Format: biochemical, Ochrobactrum sp. M231
Settings: PBS pH 7.0, 30 °C, 30 min, substrate range printed as 0.249 to 0.870 nM in methods, not consistent with Km in mmol/L, hydrolysis assay used 0.248 mM

B1: AiiO-AIO6 (Ochrobactrum sp. M231) (protein)
chain: MKSHEIETSHGRIAIRESRGNGTPLLMIHGNSSAGAIFAPQLEGEIGRNWRVIAPDLPGHGQSGNALDPDRSYSMEGYADVMTEVLAKLGISDAVVFGWSLGGHIGIEMISRFPGMRGLMITGTPPVAREEVGQGFRSGPDMALAGQEAFSDRDVESYARSTCGEPFEEQLLEIVARTDGRARRIMFEKFAAGTGGNQRDIVAEARLPIAVVNGRDEPFVELDFVSKVRFGNLWEGRTHVIDGAGHAPFRETPAIFDDYLQRFMRDCTA
notes: purified recombinant; expressed from pWB-AIO6BS in Bacillus subtilis 1A751 or protease-deletion derivatives (non-classical secretion, no signal peptide); His tag implied by anti-His Western blot; catalytic triad Ser100, Glu214, His246
For B1, the Km was 415.1 µM and the kcat was 9.34 S^-1.
